{
  "source": "paper PMC6375650",
  "about": "(PLoS Biology, 2019)",
  "binders": {"B1": {"name": "H7.5 Fab (papain digest of H7.5 IgG) (Fab, V domains shown)", "VH": "QVQLVQSGAEVKKPGASVKVSCKASGYTLTRYYFHWVRQAPGQGFEWMGIINPNGGGTSYAQKFGDRVIMTSDMSTSTIYMELSSLRSEDTAVYYCARDMPYYHDSGGPLFDLWGQGTLVTVSS", "VL": "EIVMTQSPSSLSASVGDRVTITCRPSQSISTFLNWYEQKPGKAPKLLIYDASSLQSGVPSRFSGSGSGTEFTLTISSLQPEDFATYYCQQSFSTPYTFGQGTRLEIK"}},
  "assay_in_all_cases": "cryo-EM structure",
  "settings_in_all_cases": "both partners purified",
  "key": {"[1]": {"biological_target": "T1, cleaved H7 NL HA (HA1/HA2), A/Netherlands/219/2003, ectodomain trimer (influenza A virus …, UniProt Q6VMK1)", "T1 construct": "copies: 3 + 3"}, "[2]": {"biological_target": "uncleaved H7 NY HA (HA0), A/New York/107/2003, ectodomain trimer (influenza A virus (A/New York/107/2003))"}, "[3]": {"biological_target": "T2, cleaved H7 Sh2 HA (HA1/HA2), A/Shanghai/2/2013, ectodomain trimer (influenza A virus (A/Shanghai/2/2013))", "T2 construct": "copies: 3 + 3"}},
  "note": "“And” between values parts separate entries of the source, which are not always exact repeats. Identical values can stand only once.",
  "data": [
    {"binder": "B1", "values": [
      {"measurement": "stoichiometry N", "setting": "[1]", "result": "3 Fabs per trimer and 2 Fabs per trimer"},
      {"measurement": "stoichiometry N", "setting": "[2]", "result": 3, "unit": "Fabs per trimer"},
      {"measurement": "stoichiometry N", "setting": "[3]", "result": 3, "unit": "Fabs per trimer"}
    ]}
  ]
}
